Laboratory results taken from patent US20070196275A1, “Diagnostic Imaging Compositions, Their Methods Of Synthesis And Use” (priority 2001, published 2007).

Experiments:
[1] = set-up: species or system Nude mice; conditions: mouse, in vivo; for clearance / t1/2, α / t1/2, β / terminal half-life (rounded figures): iv
Method: At predetermined intervals, blood samples (30-60 μl) were taken from the medial saphenous vein by puncture, and the radioactivity of each sample was measured with a Cobra Autogamma counter (Packard, Downers Grove, Ill.). The pharmacokinetic parameters for each radiotracer were calculated from mean blood concentration values observed over the study period using WinNonlin™ 2.1 software (Scientific Consulting, Inc., Lexington, Ky.). The mice were killed at the end of the study, and the liver, muscle, kidneys, and spleen were removed, weighed, and measured for radioactivity. The data are expressed as percentage of injected dose per gram of tissue. In FIG. 15A, the y-axis represents % Injected dose/ml blood; the x-axis represents time in hours. Squares represent Annexin V. Diamonds represent PEG-Annexin V. In FIG. 15B, the y-axis represents % Injected dose/g tissue. From left to right, the paired bars in FIG. 15B represent blood, liver, kidney, spleen, and muscle tissues, respectively. The bars on the left of the paired bars represent Annexin V. The bars on the right of the paired bars represent PEG-Annexin V.

[2] = test system: Ara-C treated HL60 and Raji cells (apoptotic cells); assay: Cell binding assay of radiolabeled PEGylated annexin V; set-up: species or system human; conditions: 1.0 μM Ara-C
Method: The 1:30 and 1:60 preps of PEGylated annexin V were tested for their ability to bind to cells that had been treated with Ara-C to induce apoptosis. Human leukemia HL60 or human B-cell lymphoma Raji cells (1×10^6 cells/ml each) were treated with Ara-C at 1.0 μM for 6 hours or 22 hours to induce apoptosis. The cells were then washed twice with PBS and re-suspended in binding buffer (10 mM HEPES/NaOH, pH 7.5 containing 140 mM NaCl and 2.5 mM CaCl2) at a concentration of 1×10^6 cells/ml. Five μl annexin V-FITC solution (50 μg/ml in 50 mM Tris-HCl, pH 7.5, containing 100 mM NaCl) was added into the control cells as well as treated cells. The mixtures were incubated at room temperature for 10 minutes. Apoptotic cells stained with annexin V-FITC (Sigma) were quantified with a Labsystems Fluoroskan FL flow cytometer (Helsinki, Finland) (FIG. 13). […] The cells were washed twice with PBS, centrifuged and counted for cell-associated radioactivity (FIG. 14). FIG. 13 is a bar graph showing apoptotic index after treatment with 1.0 uM Ara-C as quantified by flow cytometry analysis using annexin V-FITC as fluorescent probe. In FIG. 13, the y-axis represents the percent apoptotic cells; the x-axis represents the time after treatment in hours. […] In FIG. 14, the y-axis represents radioactivity in cpm; the x-axis represents time after treatment in hours. […]

MDA-MB-468 tumors [3] = test system: MDA-MB-468 tumors; set-up: species or system mice; conditions: mouse, in vivo
Method: The following materials and methods were used in this example. Human breast adenocarcinoma MDA-MB-468 cells were maintained in 1:1(v/v) Dulbecco's modified Eagle's medium (DMEM)/Ham's F-12 mixture supplemented with 10% fetal bovine serum (FBS) (Gibco Laboratories, Grand Island, N.Y.) at 37 C in 5% CO2/95% air. […] Mice in Group I were not treated and were used as a control. In Group II, mice were injected intravenous with PG-paclitaxel (PG-TXL) at an equivalent paclitaxel (Taxol, TXL) dose of 100 mg/kg 1 day before the injection of radiotracer. PG-TXL is a water-soluble polymeric conjugate of paclitaxel and poly(l-glutamic acid). […] The conjugate has the same mechanism of action as paclitaxel. […] Radioactivity of each sample was measured with the Cobra Auto-gamma Counter (Packard, Downers Grove, Ill.). The percentage of the injected dose per gram of tissue (% ID/g tissue) was calculated for each sample. In a separate experiment, tumors were histologically analyzed to quantify apoptotic index induced by drug treatments. […] Apoptosis index was scored in coded slides by microscopic examination at 400× magnification. Five fields of nonnecrotic areas were randomly selected in each histological specimen, and in each field the number of apoptotic nuclei were recorded as numbers per 100 nuclei and were expressed as a percentage. […]

[4] = test system: HL60 cells and Raji cells; assay: Flow cytometry of apoptotic cells stained with annexin V-FITC; assay type: cell-based, human; conditions: 1.0 μM, 22 hours, annexin V-FITC staining
Method: The 1:30 and 1:60 preps of PEGylated annexin V were tested for their ability to bind to cells that had been treated with Ara-C to induce apoptosis. Human leukemia HL60 or human B-cell lymphoma Raji cells (1×10^6 cells/ml each) were treated with Ara-C at 1.0 μM for 6 hours or 22 hours to induce apoptosis. The cells were then washed twice with PBS and re-suspended in binding buffer (10 mM HEPES/NaOH, pH 7.5 containing 140 mM NaCl and 2.5 mM CaCl2) at a concentration of 1×10^6 cells/ml. Five μl annexin V-FITC solution (50 μg/ml in 50 mM Tris-HCl, pH 7.5, containing 100 mM NaCl) was added into the control cells as well as treated cells. The mixtures were incubated at room temperature for 10 minutes. Apoptotic cells stained with annexin V-FITC (Sigma) were quantified with a Labsystems Fluoroskan FL flow cytometer (Helsinki, Finland) (FIG. 13). […] The cells were washed twice with PBS, centrifuged and counted for cell-associated radioactivity (FIG. 14).
FIG. 13 is a bar graph showing apoptotic index after treatment with 1.0 uM Ara-C as quantified by flow cytometry analysis using annexin V-FITC as fluorescent probe. In FIG. 13, the y-axis represents the percent apoptotic cells; the x-axis represents the time after treatment in hours. […] In FIG. 14, the y-axis represents radioactivity in cpm; the x-axis represents time after treatment in hours. […]

MDA-MB-468 tumors [5] = assay: Autoradiography and TUNEL assay; assay type: in vivo, mice; conditions: 4 days after treatment, intratumoral distribution of ^111In-DTPA-PEG-AV
Description: Two tumors removed from each group of mice at the end of the gamma imaging session were rapidly frozen, processed, and 8-μm sections were made. The sliced sections were fixed in cold acetone, dried, and exposed to a multipurpose storage phosphor screen for 10 days. A Cyclone™ Storage Phosphor System (Packard Instrument Company, Inc., Meriden, Conn.) was used to obtain autoradiographic images. The radioactivity at selected field of view is expressed as digital light unit per millimeter square (DLU/mm^2).
DNA fragmentation was analyzed by terminal deoxynucleotidyl transferase (TdT)-uridine nick end labeling (TUNEL) using a commercial kit according to the manufacturer provided protocol (Promega, Madison, Wis.). Frozen tissue sections (8 μm) were fixed with 4% paraformaldehyde (methanol-free) for 10 minutes at room temperature. The sections were washed with PBS two times (5 minutes each) and incubated with equilibration buffer (Promega) for 10 minutes at room temperature. […] Images were recorded using an Olympus fluorescence microscope (Olympus, Melville, N.Y.) with 520 nm filter and 20× object lens. Apoptotic cells per slide view were quantified by AAB colony counting software (Advanced American Biotechnology, Fullerton, Calif.) and expressed as number per field of view (0.016 mm^2).

In the case of “1:15 prep ^111In-DTPA-PEG-annexin V: ^111In-labeled annexin V PEGylated with SCN-PEG-DTPA, 1:15 prep”, the “percentage of injected dose per gram of tissue, blood” value [1] was 0.36±0.05%, the “percentage of injected dose per gram of tissue, kidney” value [1] was 22.35±4.74% and the “percentage of injected dose per gram of tissue, liver” value [1] was 8.37±2.76%. The “percentage of injected dose per gram of tissue, muscle” value [1] was 0.75±0.04%, the “percentage of injected dose per gram of tissue, spleen” value [1] was 6.75±0.44% and the clearance [1] was 0.01 mL/h. The “t1/2, α” value [1] was 4.90 h, the “t1/2, β” value [1] was 26.3 h and the “terminal half-life (rounded figures)” value [1] was 26 h.
In the case of “1:30 prep of ^111In-DTPA-PEG-AV: ^111In-labeled annexin V PEGylated with SCN-PEG-DTPA at molar ratio 1:30”, the “increase of cell associated radioactivity after treatment with Ara-C” value ([2]; HL60 and Raji cells) was 4-6 fold and the “change of tumor uptake 1 day after PG-TXL” value (MDA-MB-468 tumors [3]) was “slight but non-significant increase of the radiotracer in the tumor”.
With “1:60 prep of ^111In-DTPA-PEG-AV: ^111In-labeled annexin V PEGylated with SCN-PEG-DTPA at molar ratio 1:60” the “binding to Ara-C treated cells” value ([2]; Raji cells) was “did not show binding to the Ara-C treated cells”.
In the case of `Nc1ccn([C@@H]2O[C@H](CO)[C@@H](O)[C@@H]2O)c(=O)n1` [Ara-C], the “increase of percentage of apoptotic cells” value [4] was 4-10 fold.
In the case of “^111In-DTPA-annexin V: ^111In-labeled annexin V with DTPA, without PEG; comparison [reference compound]”, the clearance [1] was 0.4 mL/h, the “t1/2, α” value [1] was 0.07 h and the “t1/2, β” value [1] was 17.4 h. The “terminal half-life (rounded figures)” value [1] was 17 h.
For “poly (L-glutamic acid)-paclitaxel conjugate [PG-TXL]”, the “apoptotic response of the tumor to treatment” value (MDA-MB-468 tumors [5]) was “increased apoptosis”.
